The values that follow come from patent US10251952B2, “Humanized anti-tau(pS422) antibody brain shuttles and use thereof” (Hoffmann-La Roche Inc., priority 2014, dated 2019).

A word on the Kd: it is the free concentration of one partner at which half of the binding sites on the other are occupied at equilibrium, for simple one-to-one binding.

One assay addresses NPY4R (Homo sapiens, UniProt P50391). Description: effect on the Y2Receptor family.
A further assay concerns the target T1, NPY5R (Homo sapiens, UniProt Q15761).
T1 sequence (Q15761 1-445): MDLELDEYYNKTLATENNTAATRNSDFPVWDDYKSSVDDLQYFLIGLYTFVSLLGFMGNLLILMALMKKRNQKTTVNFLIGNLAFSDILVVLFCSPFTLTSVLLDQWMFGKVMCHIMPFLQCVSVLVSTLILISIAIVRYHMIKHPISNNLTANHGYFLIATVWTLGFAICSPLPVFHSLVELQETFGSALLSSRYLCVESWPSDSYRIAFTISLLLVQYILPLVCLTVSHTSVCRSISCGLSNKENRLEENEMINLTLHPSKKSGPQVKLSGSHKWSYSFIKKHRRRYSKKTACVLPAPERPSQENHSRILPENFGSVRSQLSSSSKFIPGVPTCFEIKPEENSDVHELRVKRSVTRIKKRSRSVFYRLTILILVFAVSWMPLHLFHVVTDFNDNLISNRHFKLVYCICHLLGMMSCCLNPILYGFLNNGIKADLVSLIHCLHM
The assay can be described thus: effect on the Y2Receptor family.

In another assay the target is T2, NPY1R (Homo sapiens, UniProt P25929).
T2 sequence (P25929 1-384): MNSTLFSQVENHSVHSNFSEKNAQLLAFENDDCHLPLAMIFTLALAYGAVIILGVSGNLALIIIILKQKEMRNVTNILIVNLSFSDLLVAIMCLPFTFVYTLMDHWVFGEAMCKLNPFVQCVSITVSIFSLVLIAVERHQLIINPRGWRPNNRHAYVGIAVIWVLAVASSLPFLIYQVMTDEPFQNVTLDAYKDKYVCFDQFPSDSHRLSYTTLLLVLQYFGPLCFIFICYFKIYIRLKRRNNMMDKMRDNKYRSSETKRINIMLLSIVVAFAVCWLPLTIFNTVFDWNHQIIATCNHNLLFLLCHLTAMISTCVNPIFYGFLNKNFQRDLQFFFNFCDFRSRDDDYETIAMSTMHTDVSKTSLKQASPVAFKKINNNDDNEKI
Description: effect on the Y2Receptor family.

A further assay addresses T3, NPY2R (Homo sapiens, UniProt P49146).
T3 sequence (P49146 1-381): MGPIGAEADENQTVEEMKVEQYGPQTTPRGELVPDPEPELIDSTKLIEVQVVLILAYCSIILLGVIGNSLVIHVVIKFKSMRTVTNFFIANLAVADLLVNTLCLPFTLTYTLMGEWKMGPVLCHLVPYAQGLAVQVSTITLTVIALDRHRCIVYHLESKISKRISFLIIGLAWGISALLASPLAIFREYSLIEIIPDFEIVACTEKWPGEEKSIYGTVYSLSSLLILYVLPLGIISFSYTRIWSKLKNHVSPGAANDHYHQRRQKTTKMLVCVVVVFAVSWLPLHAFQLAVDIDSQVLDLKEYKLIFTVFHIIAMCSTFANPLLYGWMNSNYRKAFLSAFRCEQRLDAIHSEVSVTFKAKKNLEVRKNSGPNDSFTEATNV
Description: effect on the Y2Receptor family.

The target in assay [1] is anti-HeliCar motif amino acid sequence antibody. The assay can be described thus: binding of PYY peptides to anti-HeliCar motif antibody.

Square brackets hold non-standard residues; d marks the D form. Ends that are not written are not given here. NMeR = CN[C@@H](CCCNC(=N)N)C(=O)O; Pqa = not defined here

Chain of NPY4R (P50391 whole entry, species assumed): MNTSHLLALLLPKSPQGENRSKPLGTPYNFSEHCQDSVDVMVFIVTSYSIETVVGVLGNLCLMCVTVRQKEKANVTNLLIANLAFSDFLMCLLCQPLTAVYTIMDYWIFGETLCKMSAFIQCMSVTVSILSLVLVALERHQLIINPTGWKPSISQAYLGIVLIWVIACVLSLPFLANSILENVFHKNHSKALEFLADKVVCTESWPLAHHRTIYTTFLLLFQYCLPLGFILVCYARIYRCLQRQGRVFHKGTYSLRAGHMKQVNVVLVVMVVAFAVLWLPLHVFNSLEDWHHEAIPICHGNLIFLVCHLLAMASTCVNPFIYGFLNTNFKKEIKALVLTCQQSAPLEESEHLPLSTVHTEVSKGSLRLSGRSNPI

For “Ac-Ile-Lys-Pqa-Arg-His-Tyr-Leu-Asn-Trp-Val-Thr-Arg-Gln-(NMe)-Arg-Try-NH2 * 4 HOAc (Ac-IK[Pqa]RHYLNWVTRQ[NMeR]Y-NH2; reading uncertain; also: salt: 4 HOAc, printed as Ac-Ile-Lys-Pqa-Arg-His-Tyr-Leu-Asn-Trp-Val-Thr-Arg-Gln-(NMe)-Arg-Try-NH2 * 4 HOAc) [reference compound]”, in the assay with NPY4R, the NPY4R result is “inactive”. In addition, the NPY5R entry in the assay with NPY5R was “inactive”. The NPY1R result with NPY1R is “inactive”. Moreover, the NPY2R in the assay with NPY2R was found to be 1.0 nM.

In assay [1], “IKPEAPGEDASPEAHLANEVARLHYLNLVTRQRY-NH2 [PYY_HeliCar]” displayed a Kd of 12 nM. Besides, the NPY4R entry on NPY4R was “inactive”. Further, on NPY5R, the NPY5R result is “inactive”. At NPY2R, this substance showed an NPY2R of 6.38 nM.
